Series [1] concerns the target N-terminally His6-tagged NusA^AR2 (E. coli) (UniProt P0AFF6). The experiment in a line: SPR; Biacore, Sensor Chip NTA, 20°C; N-terminally His6-tagged NusA^AR2 immobilised; single cycle kinetics with SuhB variants at 25, 50, 100, 150 and 200 nM; 20 mM HEPES–NaOH pH 7.5, 50 mM NaCl, 1 mM DTT. A general note: In SPR one partner is held on a chip, and binding of the other changes the refractive index at the surface.

For series [2], the system named is SuhB (Escherichia coli DH5α). As to the kind of experiment: double filter binding. Conditions: Hill slope fit, 50 nM RNA, Filter binding: 20 mM HEPES-NaOH pH 7.5, 50 mM NaCl, 1 mM DTT, room temperature, 20 min, SEC buffer not in material.

As a reminder, the Kd is the concentration at which binding is half-saturated. Higher therefore signals lower affinity. “SuhB^KL251/254AA (from UniProt P0ADG4 1-267) (natural protein)” showed a dissociation constant (Kd) in series [1] of 141 µM. In series [2], rrnGnut RNA registered an equilibrium dissociation constant (Kd) of 3.2 µM.

These data come from article PMC6614801.
